Laboratory results taken from the Human Domainome abundance scans (Beltran et al. 2025).
± gives the uncertainty stated by the source.

B1: POU domain, class 4, transcription factor 1, residues 266 to 347; numbered along this chain, Q01851 (parent)
chain: RELEAFAERFKQRRIKLGVTQADVGSALANLKIPGVGSLSQSTICRFESLTLSHNNMIALKPILQAWLEEAEGAQREKMNKP

Variants of: B1
Experiment: abundance fitness (aPCA) (normalised: wild type 0, dead -1); higher = more abundant; growth selection in yeast, the domain comes from the species named
Details: Homo sapiens

First: RELEAFAERFKQRRIKLGVTQADVGSALANLKIPGVGSLSQSTICRFESLTRSHNNMIALKPILQAWLEEAEGAQREKMNKP
Second: RELEAFAERFKQRRIKLGVTQADVGSALANLKIPGVGSLSQSTICRVESLTLSHNNMIALKPILQAWLEEAEGAQREKMNKP
The abundance fitness of the first is lower: -0.986 ± 0.084 for the first, -0.706 ± 0.095 for the second.

RELEAFAERFKQRRIKLGVTQADVGSALANLKIPGVGSLSQSTICRFESLTLSHNNMITLKPILQAWLEEAEGAQREKMNKP and RELEAFAERFKQRRIKLGVTQADVGSALANLKIPGVGSLSQSTICRFESLTLSHNNMIMLKPILQAWLEEAEGAQREKMNKP are within error of each other in abundance fitness: -0.011 ± 0.061 for the first, 0.009 ± 0.067 for the second.

RELEAFAERFKQRRIKLGVTQADVGSSLANLKIPGVGSLSQSTICRFESLTLSHNNMIALKPILQAWLEEAEGAQREKMNKP and RELEAFAERFKQRRIKLGVTQADVGSDLANLKIPGVGSLSQSTICRFESLTLSHNNMIALKPILQAWLEEAEGAQREKMNKP are within error of each other in abundance fitness: -0.023 ± 0.058 for the first, -0.043 ± 0.081 for the second.

Going from RELEAFAERFKQRRIKLGVTQADVGSALANLKIPGVGSLSQSTTCRFESLTLSHNNMIALKPILQAWLEEAEGAQREKMNKP to RELEAFAERFKQRRIKLGVTQADVGSALANLKIPGVGSLSQTTICRFESLTLSHNNMIALKPILQAWLEEAEGAQREKMNKP, the abundance fitness rises from -0.751 ± 0.15 to 0.029 ± 0.082.

Compared with RELEAFAERFKQRRIKLGVTQADVGSALANLKIPGVGSLSQSTICRFESLTLSHNNMIALKPILQAWLEEAEGAQREKMDKP, RELEAFAERFKQRRIKLGVTQADVGSALANLKIPGVGSLSQSTICRFESLTLSHNNMIALKPILQACLEEAEGAQREKMNKP is lower in abundance fitness: -0.007 ± 0.062 for the first, -0.939 ± 0.32 for the second.

Going from RELEAFAERFKQRRIKLGVTQADVGSALANLKIPGVGSLSQSTICRFESLTLSHNNMIALKPILYAWLEEAEGAQREKMNKP to RELEAFAERFKQRRIKLGVTQADVGSALANLYIPGVGSLSQSTICRFESLTLSHNNMIALKPILQAWLEEAEGAQREKMNKP, the abundance fitness falls from -0.075 ± 0.059 to -0.281 ± 0.14.

RELEAFAERFKQRRIKLGVTQADVGSALANLPIPGVGSLSQSTICRFESLTLSHNNMIALKPILQAWLEEAEGAQREKMNKP and RELEAFAERFKQRRIKLGVTQADVGSALANLKIPGVGSLSQSTICRFESLTLSHNNMIALKPILQAWLEEAEGAMREKMNKP are within error of each other in abundance fitness: -0.204 ± 0.13 for the first, -0.025 ± 0.06 for the second.

Going from RELEAFAERFKQRRIKLGVTQADVGSALANLKIPGVGSLSQSTICRFESLTLSHNNMIALKPILQAWLEEAEGARREKMNKP to RELEAFAERFKQRRIKLGVTQADVGSALANLKIPGVGSLSQSTICRFESLTLSHNNMIALKPILQAWLEEPEGAQREKMNKP, the abundance fitness falls from -0.028 ± 0.032 to -0.588 ± 0.15.

RELEAFAERFKQRRIKLGVTQADVGSALANLKIPGVGSLSQSTICRFESLTLSHNNMIALKPILQAWLEEREGAQREKMNKP and RELEAFAERFKQRRIKLGVTQADVGKALANLKIPGVGSLSQSTICRFESLTLSHNNMIALKPILQAWLEEAEGAQREKMNKP are within error of each other in abundance fitness: -0.051 ± 0.04 for the first, -0.029 ± 0.062 for the second.

First: RELEAFAERFKQRRIKLGVTQADVGSALANLKIQGVGSLSQSTICRFESLTLSHNNMIALKPILQAWLEEAEGAQREKMNKP
Second: RELEAFAERFKQRRIKLGVTQADVGSALANLKIHGVGSLSQSTICRFESLTLSHNNMIALKPILQAWLEEAEGAQREKMNKP
The abundance fitness of the first is higher: -0.027 ± 0.039 for the first, -0.167 ± 0.063 for the second.

Compared with RELEAFAERFKQRRIKLGVTQADVGSALANLKIPGVGSLSQSTICRFESLTLSHNNMIALKPILQAWLEEAEGAQRWKMNKP, RELEAFAERFKQRRIKLGVTQADVGSALANLKIPGVGSLSQSTICRFESLTLSHNNMIALKPILQAWLEEAEGSQREKMNKP is higher in abundance fitness: -0.145 ± 0.035 for the first, 0.005 ± 0.029 for the second.

Going from RELEAFAERFKQRRIKLGVTQADVGSALANLKIPGVGSLSQSTICRFESLTLSHNNMIALKPILQAWLPEAEGAQREKMNKP to RELLAFAERFKQRRIKLGVTQADVGSALANLKIPGVGSLSQSTICRFESLTLSHNNMIALKPILQAWLEEAEGAQREKMNKP, the abundance fitness rises from -0.612 ± 0.14 to -0.134 ± 0.045.

RELEAFAERFKIRRIKLGVTQADVGSALANLKIPGVGSLSQSTICRFESLTLSHNNMIALKPILQAWLEEAEGAQREKMNKP and RELEAFAERFKQRRIKLGVTQADVGSALANLKIPGVGSLSQSTICRFESLTLSHCNMIALKPILQAWLEEAEGAQREKMNKP are within error of each other in abundance fitness: -0.144 ± 0.056 for the first, -0.036 ± 0.13 for the second.

RELEAFAERFKQRRIKLGVTQADVGSALANLKIPGVGSLSQSTICRFESLTLSHANMIALKPILQAWLEEAEGAQREKMNKP and RELEAFAERFKQRRIKLGVTQADVGSALANQKIPGVGSLSQSTICRFESLTLSHNNMIALKPILQAWLEEAEGAQREKMNKP are within error of each other in abundance fitness: 0.023 ± 0.041 for the first, -0.04 ± 0.038 for the second.

Going from RELEAFAERMKQRRIKLGVTQADVGSALANLKIPGVGSLSQSTICRFESLTLSHNNMIALKPILQAWLEEAEGAQREKMNKP to RELEAFAERAKQRRIKLGVTQADVGSALANLKIPGVGSLSQSTICRFESLTLSHNNMIALKPILQAWLEEAEGAQREKMNKP, the abundance fitness falls from -0.56 ± 0.044 to -0.762 ± 0.038.

RELEAFAERFKQRRIKLGVTQADVGSALANLKIPGVGSLSQSTICRFESLTLSHNNMIALKPILQAWLEEAEGAQREKINKP and RELEAFAERFKQRRIKLGVTQADVGSALANLKIPGVGSLSQSTICRFEGLTLSHNNMIALKPILQAWLEEAEGAQREKMNKP are within error of each other in abundance fitness: 0.008 ± 0.042 for the first, -0.002 ± 0.029 for the second.

Going from RELEAFAERFKQRRIKLGVTQADVGSALANLKIPGVGSLSQSTICRFEVLTLSHNNMIALKPILQAWLEEAEGAQREKMNKP to RELEAFAERFKQRRIKLGVTQADVGSALANLKIPGVGSLSQSTICQFESLTLSHNNMIALKPILQAWLEEAEGAQREKMNKP, the abundance fitness rises from -0.654 ± 0.046 to 0.042 ± 0.07.
